In the DeepSol protein solubility set:

Assay: soluble on expression in E. coli; label from the status in PepcDB or PDB records
In the case of “GAQNQDCAFFFPNQEGEQITRNCYTADGKLTNILVYRVDQAYEYPSGMEVVANYTFADAAGKTLNSGQMVARCSDGNFSMSMGDVATFPTALNMMNADVYMMGDLMNYPDAFSNPMNPGDDDEFDDGTLRLYQKGNKNNRAEISVFDREFVTTETVNTPAGAFYCTKVKYEMNIWTPKETIKGYGYEWYAPNIGIVRSEQYNNKKELQSYSVLERIKK”, the “soluble on expression in E. coli” value is reported as “soluble”.
In the case of “MGSDKIHHHHHHMFAGAWKNYRNILCVRPDNMGDVLMSQPAMRALKESVPGRKITLLTSTAGACIAPFIPEVDETIPFDVPWVKTTETNGAQRLLALAGELLALQLDAAVIFTVYSQNPLPAGMLCYLAGIKAVLGYCRENPYQLINQWVPDREPLDYVVHEVERQLRLVEMAGAKTSDTRLLLKIPEETRKEATDRVWEILNVAGIRAGMGWLVLHAGVSEEKRLYPARDYITACQSLIRQGYKILLTGSGSERDYVDQIARQLSDAAINVAGELSIAELIVLVEAAPVLISNNTGPVHIATAVGTPVVVLYAMTNPQHTPWQVPSKVLYFEVLPELRTKNQLLQSFPGSSTPRASPEAIVAAVGELVSPRRKHGSFIPSPLRNPVPTCNSLPDTALAACFTPHNEYGMCPPIRYGEDV”, the “soluble on expression in E. coli” value is reported as “not soluble”.
For “MCKMEITDLIKGMESANVSDIYIFLHEDGPVAFDASAAHLLCYFPEMEMESVFCSDSKRHRIIQGFALEPVLERLAQYPCLVDDDCIRIMGVL”, the “soluble on expression in E. coli” value was “not soluble”.
With “NGAQAFVSAQTSTIPKTAFTAHDFVDYTLPQEQKGKEQKEQQWMKNSQTKDTDVHPYADFAVLEILLFPDSSTDRKIFNHFIQPAIRAYKQLGDSLNIFANQTLDQPKHNRYYLLGYPFLRNKAASLFLNQTEQR” the “soluble on expression in E. coli” value was “soluble”.
For “MRMDLSRIRNFSIIAHVDHGKSTLADRILELTHAVSDREMREQFLDSLELERERGITIKASAVRVTYRAKDGEEYVFHLIDTPGHVDFTYEVSRALAAVEGVLLVVDASQGVEAETLAKFYMALEHGHVIIPVINKIDLPNARPLEVALEVEEVLGLPADEAIFASGKTGEGVEEILEAIVQRIPPPKGDPEAPLKALIFDSVYDAYQGVIPYLRLFEGRVRPGDRIRIYSTGKEFTVDKVGVFTPQGLVATEALEAGEVGWLVAAIRDIHDVQVGDTITLADRPTPSPYPGFRPAKPVVFAGLYPVDSGDYGKLRDALEKLKLNDAALTFEPESSTALGFGFRCGFLGLLHAEIVQERLEREFGLSLIATAPSVVYKVRLKSGEEVEVHNPADLPDPTRIEEILEPYVKLTIFTPEEYVGSLMQLLQEKRGRLVNMNYLPGAQKRVELVYEAPFAEILYDFHDRLKSVSRGYASMDYEQAGYRPGDLVKVNVLVHGEVVDALTFIAHREKAYTMARAIVDKLAEVIPRQLFEVPIQAAIGGKIIARATVKALRKDVLAKCYGGDVTRKKKLLEKQKEGKKRLKAIGKVEVPQEAFLAVLSAGRDEPKG”, the “soluble on expression in E. coli” value was “soluble”.
For “MKYTQSFCFVSVIVLSSSVHLHGQNNKMNVLLIIADDMRPELGCYGIEDIVTPRLDSLARYATVFQNAYCNIPVSGASRASLFTGMYPRYPNRFTAFDASAEKDCPEALSLPECFKKNGYYVVSNGKVFHNITDHADSWSEAPWRVHPDGYGKDWAEYNKWELWQNEESSRYVHPKTLRGPFCESADVADTTYIDGRVAQKTIADLRRLHKKEKPFFLACGFWKPHLPFNAPKKYWDLYRREEIHLAQNPYRPKALPKQVTSSGEIRGYGKFVTTKDETFQREAKHGYYACVSYIDAQIGLILDELDRLGLSENTIVVILGDHGWHLGEHGFWGKHNLMNHATRAPLIVRVPHCRGGKAKGIVEFVDIYPTLCELCGVPMPKDQLQGKSFVPILQDSGKKTKQYAFIQWKGGYNIVSEQYSSTIWLQGDSVVARMIFDRQLDASENENKVHCPYLSRERDKLEAQIKIRKSQLLEHHHHHH”, the “soluble on expression in E. coli” value was “not soluble”.
For “MWRLTRKIGTRIHISNQLSPIFNKAIGTVPVFRFYSSSPEQKYRKKLLEEAQKQGFNSIEELKNHLKETIESKKREFNKIDPLKELEDYQQKTQMENNNSKHLMTKSRSPLDPSAPKVPFKTLDSFLDVGKLKDLSKQEVEFLWRARWAQKDNTLCAVIPVSVYDKMMANARNNPIFVLPLPRQVQSEDAKPNEEQGMELHYIQWQFVGPQTTHCMMTSLAEYKLHQEFARPHTTLQFHSDLVKDKGIVFMNGHVEPDTNVNVQDAQLLLLNVQRFYGAMGEETPVAKQRVQLLRDFSKASPGFTVEKLISLSQSMEN”, the “soluble on expression in E. coli” value was “soluble”.
With “MKQPFTQAIENAELAIRNADERNDIFSELLEGLGVGPVAGEVLLGGLNASPKLMQHAEQELIEEVQRRRQQQHQLQGVQGKRRKRPTMMRGMVILEHHHHHH” the “soluble on expression in E. coli” value was “not soluble”.
In the case of “MAHHHHHHMSSATPPLPADSVTASAALRFSVDFDPSRADSKPSVLLLTQNVGGIEAALGTDAGLGETSPECPHSPLPENGGDTSAAFASVPKDFRGPSYIHVPDDIDSELGVSPVVRQQVAEFLADLRQWLHRLSYMSAAVRAAEASATASSAAPASVAGGAPSPPPSPTPCGAAANTEAYMRSYTPSVRPPLIDMVVLHFQEIGGKYKNKHFNEYFKEQIRTSLLPEAGWTSGLLMDERESGDTLSSSSYQRHRATSTVQALRRTSFEGSSTSNNNGNANGHVGDAHRLSDANSNDTDLTAELDADADAYFTAIGSIVFLSPRFMGIASCLSVPHRTYIPIVDDPLTYAGEAGRLFHSGKFAEAGRSRKGFLLLSLRLGTVQFNVCNVHLFNDDDNRVALKSSPSLYTGRRTRAITEAIAECSAVVDLSEPLFIFGDYNVRMDGKSFTEWVEEKMQMTVRAERKRLRCPEQFWELFTNPATQQELRTRFDIEPQHLMDEVALLSSVELAEMPIQFAPTYSRVAYRTRTGATTTSAGADAAALRDVAATPDAQQQIPTLKDLAGRADAIRAEEQEQTEAIRARPSVSTLLAPLASPLASVPLTHVAASPYRDNFCHDRLPAWCDRVMFNVAGLEWISGDRSRTAPPQPQAASSVSGSAASGAGGLKGRQRSGQGCWYAYAAIDFIHMDHDGVFMLF”, the “soluble on expression in E. coli” value is reported as “not soluble”.
For “MFHLVDFQVTIAEILIIIMRTFRIAIWNLDVIISSIVRQLFKPLTKKNYSELDDEEPMELDYP”, the “soluble on expression in E. coli” value was “soluble”.
In the case of “MVSVSVVIATLKPRDEIEAIQCLEDQTFDDFEVIVCDKSPVTRARNEGIRQSSSDKIVFLDDDSRPQPGYLEKANDVLETEAAYAGRTIHPVDDVFARHFTAHYDWGGDPCYVDHFWGCNMGVHRDVFKTVGGWDEEMGWGHEEKELARRVRSEFDIRYDPELVVDHPYASSITDYWKKQYKLETKSPYYWSKCNVSRADQLKNIFCETFDPLNYVRITPVATMIEAGSTVAKTAGRLRGFLDHTHHEEGRGGVPDIDRPSQSPERSGLEHHHHHH”, the “soluble on expression in E. coli” value is reported as “not soluble”.
With “MSLEPDNQTPLKILVTGASGFVGLRVLTQAQNIGYALVAQSRSQQPYSFEQVLLDITPNTDWERALVGVDCVVHCAARVHQMQETEADALKAYRDVNTQGTLNLAKQAVSAGVKRFIFLSSIKVNGEQTKAGSAFQHDDQHIPSDPYGLSKYEAEQQLLELAAETGLEVVIIRPPLVYGEGVKANFLSMMNWVKKQIPLPLGAVGNMRSLVYLDNLVDLILVCCQHPKAAGEIFLVSDNHDVSLTTLLRTIAQAMQIRPRLLPIPQTGLQWLLRLLGKPELGQRLCGNLQLDIAHTQKTLHWSPPVSFEQGIARTVNFYLSQSSKEGHHHHHH” the “soluble on expression in E. coli” value was “soluble”.
For “MQATLIKPTIFTHQPILEKLFKSQSMTQEESHQLFAAIVRGELEDSQLAAALISMKMRGERPEEIAGAASALLADAQPFPRPDYDFADIVGTGGDGTNSINISTASAFVAASCGAKVAKHGNRSVCQPLAGSCDLLQAFGIRLDMSAEDSRQALDDLNVCFLFAPQYHTGFRHAMPVRQQLKTRTIFNVLGPLINPARPPKALIGVYSPELVLPIAQALKVLGYKNAAVVHGGGMDEVAIHTPTQVAELNNGEIESYQLSPQDFGLQSYSLNALQGGTPEENRDILARLLQGKGDAAHARQVAANVALLLKLFGQDNLRHNAQLALETIRSGTAFERVTALAARG”, the “soluble on expression in E. coli” value was “soluble”.
For “MEIQFLGTGAGQPAKARNVSSLVLKLLDELNEIWMFDCGEGTQRQILETTIKPRKIRKIFITHLHGDHVFGLPGFLSSRAFQANDEQTDVDIYGPVGIKHLVMASIRTSGAHLPYHIHFHEFDAKHLGKILETDKFMVYAEKLDHTIFCVGYRVVQKDLEGTLDAEKLKAAGLPFGPLFGRVKNGQDVVLEDGTTIIAKDYISAPKKGKVITILGDTRKTDASIRLALGADVLVHESTYSKGDENLARRHGHSTNTEAARVAKAASVKKLLLNHISARFLSHDISRMRDDAQEIFTDVHIVRDLEEVKLLEHHHHHH”, the “soluble on expression in E. coli” value was “not soluble”.
With “MAHHHHHHMSTNINEEKCLEGDDIKYEKPDTHKNFWKSFGLNNEAGKLLYHLYGESNKIKPNILSSKHDGDKNKNDKKKEDAKLNTTYRKPQIHYPSLKKKAVKENPIDTIKHRKPLSKILEETQNYDCIKDIPISIGMNRETEKNKLHNIFVEEKCLMVPPSCAPMILTQEEKKEIIEKAQQRYIYINEENKSREEKHIQALRNYKLELIQELNEKRKLLQDIINEDKNIQGNISINQSDKRVSNKGNSYNIIQIKNDIEQCQKSIKKIEDNLNTYE” the “soluble on expression in E. coli” value was “not soluble”.
With “MNITQILSQELSATAAQITAAVELLDDGATVPFIARYRKEATGGLDDTQLRRLAERLQYLRELEERKAVVLKSIEEQGKLSDDLRAQIEAADNKTALEDLYLPYKPKRRTKAQIAREHGLQPLADVLLAEQSQDVEAAAQGYLNENVPDAKAALDGARAILMEQFAEDAELIGTLRDKLWNEAEIHAQVVEGKETEGEKFSDYFDHREPVRTMPSHRALAVLRGRNEGVLNIALKYQPDDTPITRQSEYEQIIACRFKVSDGHKWLRDTVRLTWRAKIFLSLELEALGRLKEAADTDAITVFARNLKDLLLVAPAGRLTTLGLDPGYRNGVKCAVVDDTGKLLDTVIVYLHQENNMLATLSRLIKQHGVKLIAIGNGTASRETDKIAGELVRGMPEMGLHKIVVSEAGASIYSASELAAREFPDLDVSLRGAVSIARRLQDPLAELVKIDPKSIGVGQYQHDVNQNQLAKSLDAVVEDCVNAVGVDVNTASAPLLARISGLNQTLAQNIVAYRDENGAFDSRKKLLKVPRLGEKTFEQAAGFLRINGGKEPLDASAVHPEAYPVVAKMLAQQGISAAELIGNRERVKQIKASDFTDERFGLPTILDILSELEKPGRDPRGEFQTASFAEGIHEISDLQVGMILEGVVSNVANFGAFVDIGVHQDGLVHISALSNKFVQDPREVVKAGDVVKVKVLEVDAARKRIALTMRLDDEPGGAKHKMPSENRSRERTAGRKPQRNDRAPANSAMADAFAKLKR” the “soluble on expression in E. coli” value was “soluble”.
In the case of “MAHHHHHHMQRYLMNTSYLQGQLKSLYALHNKTVADYGELVQNLNEECTILCDVVPSYRISSTLENEDGGGQRKQKEVYNVQKLEHEILTQYTHFLQLLRKLSRKSHPEQQALGSRLCARLVKSSAPEFNHADALLSLAIDFANSKSVRVAQPCQTALSELLDDQKVSDTTEHIVGALLRIVRKRSYAMNPKLLNLLLHVRVAMVDVHREDLAEEKAKSKRLKKEDKELARQLQKSKARRDRAEIAAKQTRILHRIFVIYLRVIEASKTCSPVHQTKILAPTLEGLVKFAPLVNLELYQQLMEALKDLVKGGGTSRTRLRVGGTEGGSDGDNVDDKHEEETATSVTTRLHALVAVATLAQRDATATASEWRVDLSYFHEVLFRCLGEALELPSAESSSSAKMTREGEQEASNGDMDEVASQGSTSSAGSLSSQAFSIAQSMTQGTLVHQNASREWTFHVGLVLRAVDLLVLTQKHLPVARVTAILRRLIQATPLCPPHIAMSILALCHRIVLRYPLAGGVIVGGSDNVIAGRGAYNPEALQTASANADSSFTWELSLLSHSYHPTLRQVAETMCKHYHKVSKHQHGQAPIVTKQLDSLGPYEVIEEYDPSLGNLKPAAPLPTALKAEVRKRQREEAQAYEVA”, the “soluble on expression in E. coli” value is reported as “not soluble”.
